From US20110135672A1 (MEDICAL COLLEGE OF GEORGIA RESEARCH INSTITUTE INC GEORGIA, published 2011) come the findings set out here.

The target in the experiment is T1, ILT4 receptor on dendritic cells of ILT4 transgenic mice (UniProt Q8N423 22-597, limits assumed).
T1 construct: whole, on cells; also called LILRB2; CD85d
Briefly: immunoprecipitation with anti-ILT4 antibody, immunoblot with anti-Csk antibody. A general note: In western blotting, separated proteins are transferred to a membrane and probed.

T1 sequence (Q8N423 22-597 limits assumed): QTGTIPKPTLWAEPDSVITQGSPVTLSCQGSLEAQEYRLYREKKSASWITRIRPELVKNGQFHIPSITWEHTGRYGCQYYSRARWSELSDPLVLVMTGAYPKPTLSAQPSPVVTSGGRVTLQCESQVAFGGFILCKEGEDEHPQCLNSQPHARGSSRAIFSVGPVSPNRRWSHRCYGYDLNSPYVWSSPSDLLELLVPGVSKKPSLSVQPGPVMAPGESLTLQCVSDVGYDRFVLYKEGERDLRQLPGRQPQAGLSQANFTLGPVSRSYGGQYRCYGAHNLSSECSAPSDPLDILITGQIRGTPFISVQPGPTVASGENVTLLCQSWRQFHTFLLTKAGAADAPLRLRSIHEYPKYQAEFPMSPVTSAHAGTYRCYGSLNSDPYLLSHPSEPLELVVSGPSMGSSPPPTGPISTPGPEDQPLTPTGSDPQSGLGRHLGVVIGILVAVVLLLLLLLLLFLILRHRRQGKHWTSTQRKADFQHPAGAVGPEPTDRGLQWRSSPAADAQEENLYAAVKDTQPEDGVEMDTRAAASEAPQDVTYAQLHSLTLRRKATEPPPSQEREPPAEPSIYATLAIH
Procedure: The pellets from 5×10⁶ untreated DCs and DCs treated with HLA-G ligands and LPS were lysed in 1 ml RIPA buffer and precleared several times with Sepharose-coupled protein A (50% wt/vol slurry). Proteins were immunoprecipitated with saturating amounts of anti-ILT4 mAb and protein G Sepharose (Amersham Biosciences). Immunoprecipitation experiments were performed using several ILT4-specific antibodies, including polyclonal anti-ILT4 (C-12), anti-ILT4 (N-14), anti-ILT4 (P-14), anti-ILT (H-300), and anti-ILT4 (42D1) mAb (all from Santa Cruz Biotechnology, Santa Cruz, Calif.). […] The immunoblot was reprobed with anti-SHP-1 and anti-SHP-2 antibodies (both Upstate), and anti-Csk antibody (Santa Cruz Biotechnology). Signals were developed using the enhanced chemoluminescence (ECL) system (Amersham Biosciences). In some cases, densitometric scans of bands were obtained to determine the extent of ILT4-mediated signal inhibition.

B1: C-terminal Src kinase (Csk) (enzyme, mouse, UniProt P41241 2-450, looked up)
chain: SAIQAAWPSGTECIAKYNFHGTAEQDLPFCKGDVLTIVAVTKDPNWYKAKNKVGREGIIPANYVQKREGVKAGTKLSLMPWFHGKITREQAERLLYPPETGLFLVRESTNYPGDYTLCVSCEGKVEHYRIMYHASKLSIDEEVYFENLMQLVEHYTTDADGLCTRLIKPKVMEGTVAAQDEFYRSGWALNMKELKLLQTIGKGEFGDVMLGDYRGNKVAVKCIKNDATAQAFLAEASVMTQLRHSNLVQLLGVIVEEKGGLYIVTEYMAKGSLVDYLRSRGRSVLGGDCLLKFSLDVCEAMEYLEGNNFVHRDLAARNVLVSEDNVAKVSDFGLTKEASSTQDTGKLPVKWTAPEALREKKFSTKSDVWSFGILLWEIYSFGRVPYPRIPLKDVVPRVEKGYKMDAPDGCPPAVYEVMKNCWHLDAATRPTFLQLREQLEHIKTHELHL
As for B1, the binding result is “no binding”.
